Measured values taken from publication PMC8775250, “Cryo-EM Structure of the Rhodobacter sphaeroides Light-Harvesting 2 Complex at 2.1 Å” (Biochemistry, 2021).
Ends that are not written are not given here.

B1: LH2 β-polypeptide of the Rhodobacter sphaeroides light-harvesting 2 (LH2) complex (natural protein)
chain: not shown
notes: Gly51 is the C-terminus; N-terminal, transmembrane and C-terminal regions of 14, 32 and 5 residues; nine copies form the outer ring
B2: LH2 α-polypeptide of the Rhodobacter sphaeroides light-harvesting 2 (LH2) complex (natural protein, Rhodobacter sphaeroides 2.4.1, UniProt Q3J144 1-54, looked up)
chain: carboxyl-MTNGKIWLVVKPTVGVPLFLSAAVIASVVIHAAVLTTTTWLPAYYQGSAAVAAE
notes: Met1 is the N-terminus in the structure; nine copies form the inner ring; also called α-apoprotein

What was measured:
[1] = biological target: the molecule itself; assay: cryo-EM structure; single-particle cryo-EM of the LH2 complex purified from membranes in 20 mM HEPES pH 7.8 with 0.1% LDAO; C9 symmetry imposed; 2.1 Å
[2] = biological target: B2; assay: as above; settings: both partners purified

| Binder | stoichiometry N [1] | binding result [2] |
| --- | --- | --- |
| B1 | 9 | binds |
| B2 | 9 | – |
